Assay [1] concerns the target T1, recombinant cynomolgus monkey B7H3 protein (cynomolgus monkey, UniProt Q7TPB4 26-248 (rat entry)).
T1 construct: also called SINO BIOLOGICAL Catalog No. 90806-C02H-50
T1 chain: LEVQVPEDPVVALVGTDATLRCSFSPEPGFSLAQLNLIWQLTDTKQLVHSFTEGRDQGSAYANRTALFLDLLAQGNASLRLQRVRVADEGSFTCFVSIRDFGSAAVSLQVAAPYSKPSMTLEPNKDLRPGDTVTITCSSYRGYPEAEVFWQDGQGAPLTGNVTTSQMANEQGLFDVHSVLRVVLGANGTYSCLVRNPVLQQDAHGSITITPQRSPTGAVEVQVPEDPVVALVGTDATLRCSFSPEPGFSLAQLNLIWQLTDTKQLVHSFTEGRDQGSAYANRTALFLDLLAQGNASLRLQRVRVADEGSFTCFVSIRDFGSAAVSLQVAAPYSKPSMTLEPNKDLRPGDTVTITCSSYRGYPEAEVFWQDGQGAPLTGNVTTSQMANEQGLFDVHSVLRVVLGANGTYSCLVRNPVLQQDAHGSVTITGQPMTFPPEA
Kind of assay: bio-layer interferometry (ForteBio), antibody loaded on sensor, antigen in solution. The protocol:
(§1) The equilibrium dissociation constant (KD) for binding of the antibodies of the present invention to human B7H3 was determined by bio-layer interferometry (ForteBio). The ForteBio affinity assay was conducted according to the method (Estep, P et al., High throughput solution Based measurement of antibody-antigen affinity and epitope binding. mAbs, 2013.5(2): 270-8) known in the art.
(§2) Briefly, AMQ (Pall, 1506091) (for sample detection) or AHQ (Pall, 1502051) (for positive control detection) sensors were equilibrated offline in an assay buffer for 30 min, and were equilibrated online for 60 s to establish a baseline. The purified antibodies obtained as described above were loaded online onto an AHQ sensor (ForteBio) for the ForteBio affinity assay. The sensor with the loaded antibodies was then exposed to the antigens (including human 4Ig-B7H3, human 2Ig-B7H3 (ACRO, Catalog No. B73-H52E2) and cynomolgus monkey B7H3 (SINO BIOLOGICAL, Catalog No. 90806-C02H-50)) before transferring the sensor to the assay buffer for dissociation rate measurement. The KD values were analyzed using ForteBio analysis software.

Assay [2] concerns the target T2, recombinant human 4Ig-B7H3 protein (human, UniProt Q5ZPR3 29-461).
T2 construct: also called human B7H3 protein; SINO BIOLOGICAL Catalog No. 11188-H08H
T2 sequence: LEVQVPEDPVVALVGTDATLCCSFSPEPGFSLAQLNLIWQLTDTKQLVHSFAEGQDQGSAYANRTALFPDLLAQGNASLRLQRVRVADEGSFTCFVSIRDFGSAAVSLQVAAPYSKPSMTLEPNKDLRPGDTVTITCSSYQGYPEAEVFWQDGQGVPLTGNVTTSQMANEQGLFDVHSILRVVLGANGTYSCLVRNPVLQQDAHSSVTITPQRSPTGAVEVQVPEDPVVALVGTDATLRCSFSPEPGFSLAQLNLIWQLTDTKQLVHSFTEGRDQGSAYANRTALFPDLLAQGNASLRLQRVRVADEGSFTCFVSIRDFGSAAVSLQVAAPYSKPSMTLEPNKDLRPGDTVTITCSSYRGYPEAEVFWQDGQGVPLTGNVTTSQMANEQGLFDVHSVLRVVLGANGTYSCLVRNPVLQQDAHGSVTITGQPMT
The description is as above. The procedure: as §1, §2

In assay [3] the target is T3, recombinant human 2Ig-B7H3 protein (human, UniProt Q5ZPR3 29-466).
T3 construct: Bought soluble recombinant protein; also called ACRO Catalog No. B73-H52E2
T3 sequence: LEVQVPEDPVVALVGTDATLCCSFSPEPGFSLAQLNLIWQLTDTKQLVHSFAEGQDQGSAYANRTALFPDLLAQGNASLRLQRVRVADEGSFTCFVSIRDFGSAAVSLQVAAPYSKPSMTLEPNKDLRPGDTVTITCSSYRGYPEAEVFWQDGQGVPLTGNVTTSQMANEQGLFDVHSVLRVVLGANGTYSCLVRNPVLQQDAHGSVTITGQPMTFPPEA
Described as above. The procedure:
as §1, §2

In assay [4] the target is T1, recombinant cynomolgus monkey B7H3 …. Kind of assay: bio-layer interferometry (ForteBio), as in Example 3. The procedure: as §2
(§3) The binding affinity of the humanized antibodies obtained in Example 4 for the antigens (human B7H3 and cynomolgus monkey B7H3) was determined by ForteBio assay as described in Example 3, which was expressed as an equilibrium dissociation constant (KD).

Assay [5] addresses T2, recombinant human 4Ig-B7H3 protein. The description is as above. The protocol: as §2, §3
The target of assay [6] is T3, recombinant human 2Ig-B7H3 protein. The description is as above. The protocol:
as §2, §3

Assay [7] addresses T4, human 2Ig-B7H3 overexpressed on CHO-S cells (CHOS-hB7H3-2Ig) (human, UniProt Q5ZPR3 29-534).
T4 construct: also called cells overexpressing human 2Ig-B7H3
T4 sequence: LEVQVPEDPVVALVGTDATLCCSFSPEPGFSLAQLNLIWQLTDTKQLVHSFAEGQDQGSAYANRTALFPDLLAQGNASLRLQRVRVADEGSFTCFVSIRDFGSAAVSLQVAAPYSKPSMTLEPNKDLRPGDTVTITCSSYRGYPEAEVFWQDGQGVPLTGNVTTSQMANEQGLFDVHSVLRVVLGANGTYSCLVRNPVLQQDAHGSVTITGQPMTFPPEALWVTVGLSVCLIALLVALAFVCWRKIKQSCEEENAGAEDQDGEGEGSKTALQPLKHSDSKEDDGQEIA
Kind of assay: FACS (flow cytometry, MFI) on CHO-S cells overexpressing human 2Ig-B7H3, PE-conjugated anti-human Fc detection; panel 'Cell-level affinity of CHOS hB7H3(2Ig)'. The procedure: (§4) 1) CHOS-hB7H3-4Ig, CHOS-hB7H3-2Ig, and CHOS-cyno B7H3 cells were diluted with a PBS solution to 2×10⁶ cells/mL, and added to a U-bottom 96-well plate at 100 μL/well. Three-fold serially diluted antibodies were added.
(§5) 2) The above mixture was incubated on ice for 30 min. The cell suspension was centrifuged at 400 g for 5 min to remove the supernatant, and the cells were washed with a PBS solution to remove the unbound antibodies. 100 μL of the solution of PE-conjugated anti-human Fc antibody (SouthernBiotech) diluted at a ratio of 1:200 was added to each well, and the cells were incubated in the dark on ice for 30 min. Then the cell suspension was centrifuged at 400 g for 5 min to remove the supernatant. The cells were washed with PBS twice to remove the unbound PE-conjugated anti-human Fc antibody. Then the cells were resuspended with 100 μL of PBS, and the binding of the antibody to cells was assayed by FACS.

The target of assay [8] is T5, human 4Ig-B7H3 overexpressed on CHO-S cells (CHOS-hB7H3-4Ig) (human, UniProt Q5ZPR3 29-534).
T5 construct: The entry includes the signal peptide; also called CHO-hB7H3-4Ig; cells overexpressing human 4Ig-B7H3
T5 sequence: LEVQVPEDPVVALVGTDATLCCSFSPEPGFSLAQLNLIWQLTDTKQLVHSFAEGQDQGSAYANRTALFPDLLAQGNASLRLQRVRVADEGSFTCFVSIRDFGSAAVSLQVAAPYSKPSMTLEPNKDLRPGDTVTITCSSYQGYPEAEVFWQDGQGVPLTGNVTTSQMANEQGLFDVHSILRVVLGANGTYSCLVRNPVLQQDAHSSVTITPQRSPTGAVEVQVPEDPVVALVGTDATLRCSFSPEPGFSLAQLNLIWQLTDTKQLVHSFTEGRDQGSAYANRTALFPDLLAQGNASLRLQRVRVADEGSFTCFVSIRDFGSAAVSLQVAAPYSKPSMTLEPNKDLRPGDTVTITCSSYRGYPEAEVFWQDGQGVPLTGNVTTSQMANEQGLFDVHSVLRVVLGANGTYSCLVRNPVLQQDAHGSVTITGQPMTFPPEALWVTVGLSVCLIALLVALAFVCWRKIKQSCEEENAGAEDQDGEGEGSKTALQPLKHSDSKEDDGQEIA
Kind of assay: FACS (flow cytometry, MFI) on CHO-S cells overexpressing human 4Ig-B7H3, PE-conjugated anti-human Fc detection; panel 'Cell-level affinity of CHOS hB7H3(4Ig)'. The procedure:
as §4, §5

B1: Ch20G5 chimeric antibody (antibody, human IgG1, kappa, V domains shown)
VH: EVQLQQSVPELVKPGASVKISCKTSGYTFTEYIMHWVKQSHGKNLEWIGGINPNNGGTTYNQKFKDKATLTVDKSSSTAYMELHNLTSEDSAVYYCTRRTPPWHFAVWGAGTSLTVSS
VL: DIVLTQSPTIMSASPGEKVTMTCSASSSVSYIHWYQQKSGTSPKRWIFDTSRLASGVPARFSGSGSGTSYSLTISSMEAEDAATYYCQQWSSAPLTFGTGTTLELKR
As to B1, the Kd came out at 0.713 nM in assay [1], 0.236 nM in assay [2] and 3.18 nM in assay [3].

B2: Hz19A2 humanized antibody (antibody, human IgG1, kappa, V domains shown)
VH: QVQLVQSGAEVKKPGASVKVSCKASGYIFTSYWIHWVRQAPGQGLEWMGRIYPGTESTFYNEKFKGRVTMTRDTSTSTVYMELSSLRSEDTAVYYCHFITASDWYFDVWGQGTLVTVSS
VL: EIVLTQSPATLSLSPGERATLSCSVSSSVQSNYLYWYQQKPGQAPRLLIYGTSNLASGIPARFSGSGSGTDFTLTISSLEPEDFAVYYCYQWSSYPFTFGQGTKLEIKR
Regarding B2, the Kd was 0.968 nM in assay [4], 0.601 nM in assay [5] and 10.4 nM in assay [6]. The EC50 in assay [7] amounted to 138 nM; in assay [8], 8.51 nM.

B3: MGA271 (positive control antibody) (antibody, V domains shown)
VH: EVQLVESGGGLVQPGGSLRLSCAASGFTFSSFGMHWVRQAPGKGLEWVAYISSDSSAIYYADTVKGRFTISRDNAKNSLYLQMNSLRDEDTAVYYCGRGRENIYYGSRLDYWGQGTTVTVSS
VL: DIQLTQSPSFLSASVGDRVTITCKASQNVDTNVAWYQQKPGKAPKALIYSASYRYSGVPSRFSGSGSGTDFTLTISSLQPEDFATYYCQQYNNYPFTFGQGTKLEIK
notes: also called Enoblituzumab
B3: the Kd turned out to be 1.87 nM in assay [4]; 0.939 nM in assay [5]; 782 nM in assay [6]; 1.66 nM in assay [1]; 0.636 nM in assay [2]; 187 nM in assay [3]. Besides, the results for the EC50 in assay [7] and in assay [8] were 100 nM and 8.54 nM, respectively.

B4: Hz20G5 humanized antibody (antibody, human IgG1, kappa, V domains shown)
VH: QVQLVQSGAEVKKPGASVKVSCKASGYTFTEYIMHWVRQAPGQRLEWMGGINPGTGGTTYNQKFKDRVTITVDTSASTAYMELSSLRSEDTAVYYCTRRTPPWHFAVWGQGTLVTVSS
VL: DIQLTQSPSFLSASVGDRVTITCSASSSVSYIHWYQQKPGKAPKRWIYDTSRLASGVPSRFSGSGSGTEFTLTISSLQPEDFATYYCQQWSSAPLTFGGGTKVEIKR
B4: the equilibrium dissociation constant (Kd) in assay [5] came to 0.371 nM; in assay [6], 6.3 nM. In addition, the EC50 in assay [7] is 7.54 nM; in assay [8], 6.28 nM.

B5: Ch19A2 chimeric antibody (antibody, human IgG1, kappa, V domains shown)
VH: EVQLQQSGAELVRPGASVKLSCKTSGYIFTSYWIHWIKQRSGQGLEWIARIYPGTDSTFYNEKFKGRATLTADKSSSTVYLQLNSLKSEDSAVYFCHFITASDWYFDVWGAGTTVTVSS
VL: DIVLTQSPAIMSASPGEKVTLTCSVSSSVNSNYLYWYQQKPGSSPKLWIYGTSNLASGVPARFSGSGSGPSYSLTISSMEAEDAASYFCYQWSSYPFTFGSGTKLEIKR
For B5, the Kd in assay [1] came to 0.59 nM; in assay [2], 0.362 nM; in assay [3], 5.74 nM.

Source of the values: patent US20240043540A1 (Innovent, published 2024).
